Assay [1] addresses T1, CD58 expressed on OVCAR-3 and HFLS-RA cells (human, UniProt P19256 29-250).
T1 sequence (looked up): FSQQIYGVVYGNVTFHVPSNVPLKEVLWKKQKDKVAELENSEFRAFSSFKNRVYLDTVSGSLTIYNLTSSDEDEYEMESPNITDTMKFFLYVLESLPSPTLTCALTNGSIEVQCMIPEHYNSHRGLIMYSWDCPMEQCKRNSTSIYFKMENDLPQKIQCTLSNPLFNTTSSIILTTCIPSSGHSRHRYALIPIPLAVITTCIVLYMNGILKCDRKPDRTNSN
Nature of the assay: cell-based or functional assay.

In assay [2] the target is CD58 expressed on sheep red blood cells (SRBC) (sheep). Put plainly: cell-based or functional assay.

Bridge positions count the residues as written; N and C are the ends. Square brackets hold non-standard residues; d marks the D form. DBF = dibenzofuran moiety used in place of Pro-Pro

B1: SFTI-a (peptide)
peptide: cyclo(CKASAPPSCYDGDD)
modifications: disulfide 1-9
SMILES: C[C@@H]1NC(=O)[C@H](CCCCN)NC(=O)[C@@H]2CSSC[C@H](NC(=O)[C@H](CO)NC(=O)[C@@H]3CCCN3C(=O)[C@@H]3CCCN3C(=O)[C@H](C)NC(=O)[C@H](CO)NC1=O)C(=O)N[C@@H](Cc1ccc(O)cc1)C(=O)N[C@@H](CC(=O)O)C(=O)NCC(=O)N[C@@H](CC(=O)O)C(=O)N[C@@H](CC(=O)O)C(=O)N2
As to B1, the “IC50, cell adhesion (PPI) inhibition” value in assay [1] came out at 51 nM.

B2: Peptide 6 (peptide)
peptide: cyclo(SIYD[dP]PDDIK)
Consider B2, for which the “IC50, inhibition of E-rosette formation” value in assay [2] amounted to 9.4 nM.

B3: SFTI-a1 (peptide)
peptide: cyclo(CKSAPPSCAYDGDD)
modifications: disulfide 1-8
SMILES: C[C@@H]1NC(=O)[C@@H]2CSSC[C@H](NC(=O)[C@H](CC(=O)O)NC(=O)[C@H](CC(=O)O)NC(=O)CNC(=O)[C@H](CC(=O)O)NC(=O)[C@H](Cc3ccc(O)cc3)NC1=O)C(=O)N[C@@H](CCCCN)C(=O)N[C@@H](CO)C(=O)N[C@@H](C)C(=O)N1CCC[C@H]1C(=O)N1CCC[C@H]1C(=O)N[C@@H](CO)C(=O)N2
As to B3, in assay [1], the “IC50, cell adhesion inhibition” value turned out to be 22 nM.

B4: SFTI-DBF (peptide)
peptide: cyclo(CKSA[DBF]SCAYDGDD)
modifications: disulfide 1-7 (inferred)
For B4, in assay [1], the “IC50, inhibition of adhesion between Jurkat and HFLS-RA cells” value turned out to be 3 nM; the “IC50, inhibition of adhesion between Jurkat and OVCAR-3 cells” value came to 0.61 nM.

(Values after US20200347136A1 (published 2020).)
